Values belong to the molecule of their own block, whether it stands above or below them.
Tests used:
human CD45RC [1] = target: T1, human CD45RC (human, UniProt P08575 26-1306); test: cell-based or functional assay
T1 construct: Native protein on human blood leukocytes / PBMC / T cells of healthy volunteers; also called hCD45RC
T1 sequence: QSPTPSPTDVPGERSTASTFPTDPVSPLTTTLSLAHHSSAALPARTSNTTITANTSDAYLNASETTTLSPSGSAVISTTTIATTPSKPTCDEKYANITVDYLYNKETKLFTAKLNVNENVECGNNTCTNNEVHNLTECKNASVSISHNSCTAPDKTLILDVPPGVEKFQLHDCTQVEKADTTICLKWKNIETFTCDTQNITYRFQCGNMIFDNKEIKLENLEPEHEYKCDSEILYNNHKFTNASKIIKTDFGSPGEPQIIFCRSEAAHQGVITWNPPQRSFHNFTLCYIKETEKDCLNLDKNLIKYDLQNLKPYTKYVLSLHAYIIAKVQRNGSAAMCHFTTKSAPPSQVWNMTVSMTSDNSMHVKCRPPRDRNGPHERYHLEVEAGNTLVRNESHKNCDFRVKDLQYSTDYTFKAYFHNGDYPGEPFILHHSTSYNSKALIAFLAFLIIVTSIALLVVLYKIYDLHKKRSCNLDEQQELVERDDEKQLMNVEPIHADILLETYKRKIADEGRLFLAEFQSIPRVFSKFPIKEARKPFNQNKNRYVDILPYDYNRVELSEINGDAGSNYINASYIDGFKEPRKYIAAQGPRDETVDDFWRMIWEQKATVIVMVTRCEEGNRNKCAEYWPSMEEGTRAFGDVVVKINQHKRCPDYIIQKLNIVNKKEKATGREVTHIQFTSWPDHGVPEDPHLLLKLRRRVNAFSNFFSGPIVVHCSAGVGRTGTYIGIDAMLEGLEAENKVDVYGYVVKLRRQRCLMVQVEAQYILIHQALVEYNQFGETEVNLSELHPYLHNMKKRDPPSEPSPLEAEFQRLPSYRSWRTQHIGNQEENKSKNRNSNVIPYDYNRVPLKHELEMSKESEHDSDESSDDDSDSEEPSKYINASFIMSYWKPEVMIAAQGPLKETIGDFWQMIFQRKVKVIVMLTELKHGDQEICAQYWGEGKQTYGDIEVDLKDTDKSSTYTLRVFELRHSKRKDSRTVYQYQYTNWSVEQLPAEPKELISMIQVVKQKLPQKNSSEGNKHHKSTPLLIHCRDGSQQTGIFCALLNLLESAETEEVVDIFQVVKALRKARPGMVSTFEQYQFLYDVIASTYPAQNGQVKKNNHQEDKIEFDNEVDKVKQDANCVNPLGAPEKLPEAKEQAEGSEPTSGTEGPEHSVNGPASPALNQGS

human CD45RC [2] = target: T1, human CD45RC; test: flow cytometry, EDTA whole blood, one of three healthy volunteers [1]
human CD45RC [3] = target: T1, human CD45RC; test: flow cytometry, EDTA whole blood, one of three healthy volunteers; very few events [2]
human CD45RC [4] = target: T1, human CD45RC; test: flow cytometry, EDTA whole blood, one of three healthy volunteers [2]
human CD45RC [5] = target: T1, human CD45RC; test: flow cytometry, EDTA whole blood, one of three healthy volunteers [3]
human CD45RC [6] = target: T1, human CD45RC; test: flow cytometry on T cells of human PBMC; biotin anti-human IgG + streptavidin PerCP-Cy5.5
[7] = target: T2, human CD45RC in solubilized cell membranes (CD45RC^high PBMCs or CHO cells expressing CD45RC) (human, UniProt P08575 26-1306); test: SPR (BIAcore 3000 / T200), ABIS-45RC immobilized on CM5 chip, solubilized cell membranes as analyte, 25 °C, single cycle kinetics and calibration free concentration analysis
T2 sequence: T1 sequence
From the text: Briefly, 1×10⁷ CD45RC^high PBMCs or CHO cells expressing CD45RC after plasmid transfection were solubilized using the Mem-PER membrane isolation kit (Thermo-fisher).

- apoptosis of human T cells after 18 h with transduced Jurkat cells (annexin V / DAPI) (human CD45RC [1]): 7 to 8%
Molecule: Ctrl-CAR (control CAR having a different antigenic specificity) (receptor)

- % of B cells in the CD45RC high gate (top) (human CD45RC [2]): 79.9%
- % of B cells in the CD45RC intermediate/low gate (middle) (human CD45RC [2]): 20.1%
- % of B cells in the CD45RC negative gate (bottom) (human CD45RC [2]): 0%
- % of CD3+ TCRab cells in the CD45RC high gate (top) (human CD45RC [2]): 8.34%
- % of CD3+ TCRab cells in the CD45RC intermediate/low gate (middle) (human CD45RC [2]): 46.2%
- % of CD3+ TCRab cells in the CD45RC negative gate (bottom) (human CD45RC [2]): 45.5%
- % of CD3+ TCRgd cells in the CD45RC high gate (top) (human CD45RC [2]): 1.93%
- % of CD3+ TCRgd cells in the CD45RC intermediate/low gate (middle) (human CD45RC [2]): 90.6%
- % of CD3+ TCRgd cells in the CD45RC negative gate (bottom) (human CD45RC [2]): 7.46%
- % of CD4+ T cells in the CD45RC high gate (top) (human CD45RC [2]): 3.64%
- % of CD4+ T cells in the CD45RC intermediate/low gate (middle) (human CD45RC [2]): 47.2%
- % of CD4+ T cells in the CD45RC negative gate (bottom) (human CD45RC [2]): 49.2%
- % of CD4+ Treg (CD25+CD127-) in the CD45RC high gate (top) (human CD45RC [2]): 3.52%
- % of CD4+ Treg (CD25+CD127-) in the CD45RC intermediate/low gate (middle) (human CD45RC [2]): 19.8%
- % of CD4+ Treg (CD25+CD127-) in the CD45RC negative gate (bottom) (human CD45RC [2]): 76.7%
- % of CD8+ T cells in the CD45RC high gate (top) (human CD45RC [2]): 38.8%
- % of CD8+ T cells in the CD45RC intermediate/low gate (middle) (human CD45RC [2]): 39.7%
- % of CD8+ T cells in the CD45RC negative gate (bottom) (human CD45RC [2]): 21.5%
- % of NK cells in the CD45RC high gate (top) (human CD45RC [2]): 28.6%
- % of NK cells in the CD45RC intermediate/low gate (middle) (human CD45RC [2]): 70.4%
- % of NK cells in the CD45RC negative gate (bottom) (human CD45RC [2]): 1%
- % of T cells in the CD45RC high gate (top) (human CD45RC [2]): 7.43%
- % of T cells in the CD45RC intermediate/low gate (middle) (human CD45RC [2]): 49.7%
- % of T cells in the CD45RC negative gate (bottom) (human CD45RC [2]): 42.9%
- % of ILC3 in the CD45RC high gate (top) (human CD45RC [3]): 50%
- % of ILC3 in the CD45RC intermediate/low gate (middle) (human CD45RC [3]): 50%
- % of ILC3 in the CD45RC negative gate (bottom) (human CD45RC [3]): 0%
- % of ILC1 in the CD45RC high gate (top) (human CD45RC [4]): 9.3%
- % of ILC1 in the CD45RC intermediate/low gate (middle) (human CD45RC [4]): 27.5%
- % of ILC1 in the CD45RC negative gate (bottom) (human CD45RC [4]): 63.2%
- % of ILC2 in the CD45RC high gate (top) (human CD45RC [4]): 45%
- % of ILC2 in the CD45RC intermediate/low gate (middle) (human CD45RC [4]): 49.5%
- % of ILC2 in the CD45RC negative gate (bottom) (human CD45RC [4]): 5.5%
- % of MAIT cells in the CD45RC high gate (top) (human CD45RC [4]): 5.89%
- % of MAIT cells in the CD45RC intermediate/low gate (middle) (human CD45RC [4]): 71%
- % of MAIT cells in the CD45RC negative gate (bottom) (human CD45RC [4]): 23.2%
- % of NKT cells in the CD45RC high gate (top) (human CD45RC [4]): 34.4%
- % of NKT cells in the CD45RC intermediate/low gate (middle) (human CD45RC [4]): 54.2%
- % of NKT cells in the CD45RC negative gate (bottom) (human CD45RC [4]): 11.4%
- % of iNKT cells in the CD45RC high gate (top) (human CD45RC [4]): 24.1%
- % of iNKT cells in the CD45RC intermediate/low gate (middle) (human CD45RC [4]): 61.6%
- % of iNKT cells in the CD45RC negative gate (bottom) (human CD45RC [4]): 14.3%
- % of monocytes CD14+ in the CD45RC high gate (top) (human CD45RC [4]): 0.43%
- % of monocytes CD14+ in the CD45RC intermediate/low gate (middle) (human CD45RC [4]): 43.9%
- % of monocytes CD14+ in the CD45RC negative gate (bottom) (human CD45RC [4]): 55.6%
- % of monocytes CD14highCD16- in the CD45RC high gate (top) (human CD45RC [4]): 0.091%
- % of monocytes CD14highCD16- in the CD45RC intermediate/low gate (middle) (human CD45RC [4]): 38.3%
- % of monocytes CD14highCD16- in the CD45RC negative gate (bottom) (human CD45RC [4]): 61.6%
- % of basophils in the CD45RC high gate (top) (human CD45RC [5]): 0%
- % of basophils in the CD45RC intermediate/low gate (middle) (human CD45RC [5]): 7.3%
- % of basophils in the CD45RC negative gate (bottom) (human CD45RC [5]): 92.7%
- % of eosinophils in the CD45RC high gate (top) (human CD45RC [5]): 0.47%
- % of eosinophils in the CD45RC intermediate/low gate (middle) (human CD45RC [5]): 90.5%
- % of eosinophils in the CD45RC negative gate (bottom) (human CD45RC [5]): 9.08%
- % of mDC in the CD45RC high gate (top) (human CD45RC [5]): 0%
- % of mDC in the CD45RC intermediate/low gate (middle) (human CD45RC [5]): 14.3%
- % of mDC in the CD45RC negative gate (bottom) (human CD45RC [5]): 85.7%
- % of monocytes CD14intCD16+ in the CD45RC high gate (top) (human CD45RC [5]): 6.45%
- % of monocytes CD14intCD16+ in the CD45RC intermediate/low gate (middle) (human CD45RC [5]): 87.7%
- % of monocytes CD14intCD16+ in the CD45RC negative gate (bottom) (human CD45RC [5]): 5.87%
- % of neutrophils in the CD45RC high gate (top) (human CD45RC [5]): 0.014%
- % of neutrophils in the CD45RC intermediate/low gate (middle) (human CD45RC [5]): 19.3%
- % of neutrophils in the CD45RC negative gate (bottom) (human CD45RC [5]): 80.7%
- % of pDC in the CD45RC high gate (top) (human CD45RC [5]): 1.84%
- % of pDC in the CD45RC intermediate/low gate (middle) (human CD45RC [5]): 97.9%
- % of pDC in the CD45RC negative gate (bottom) (human CD45RC [5]): 0.23%
Molecule: MT2 (murine anti-hCD45RC antibody, commercially available)

- % of T cells in the CD45RC gate at 1 µg/mL (human CD45RC [6]): 61.3%
- % of T cells in the CD45RC gate at 2 µg/mL (human CD45RC [6]): 61.1%
- Kd [7]: 50 nM
- koff [7]: 0.0144 s⁻¹
- kon [7]: 291000 M⁻¹ s⁻¹
B1: ABIS-45RC (antibody, mouse IgG1, kappa, V domains shown)
VH: QVQLQQSGAELVRPGTSVKMSCKAAGYTFTNYYIGWVKQRPGHGLEWIGDIFPGGDYANSNEKFKGKATLTADTSSSTAYMQLSSLTSEDSAIYYCVRRNFDYWGQGTTLTVSS
VL: QIVLTQSPTIMSASPGEKVTITCSASSSVSYMHWFQQKTGTSPRLWIYNTSNLPSGVPARFSGSGSGTSYSLTISRMEAEDAATYYCQQRSSYPLTFGAGTKLELKR
notes: also called murine ABIS-45RC; ABIS-CD45RC
